Reference: the Human Domainome abundance scans (Beltran et al. 2025)
± gives the uncertainty stated by the source.

B1: Far upstream element-binding protein 1, residues 184 to 257; numbered along this chain, Q96AE4 (parent)
chain: GNAVQEIMIPASKAGLVIGKGGETIKQLQERAGVKMVMIQDGPQNTGADKPLRITGDPYKVQQAKEMVLELIRD
B2: Tudor domain-containing protein 3, residues 554 to 611; numbered along this chain, Q9H7E2 (parent)
chain: KMWKPGDECFALYWEDNKFYRAEVEALHSSGMTAVVKFIDYGNYEEVLLSNIKPIQTE

Variants of: B1
Assay: abundance fitness (aPCA) (normalised: wild type 0, dead -1); higher = more abundant; growth selection in yeast, the domain comes from the species named
Conditions: Homo sapiens

Abundance fitness of substitutions, site by site:
Q62: K -0.022 ± 0.035, W -0.114 ± 0.035, F -0.105 ± 0.048, A 0.007 ± 0.03, N -0.097 ± 0.044, E 0.02 ± 0.034, T -0.011 ± 0.035, G -0.03 ± 0.027, Y -0.04 ± 0.051, M -0.075 ± 0.041, R -0.059 ± 0.026, H -0.069 ± 0.047, C -0.037 ± 0.041, V -0.049 ± 0.03
V61: P -0.758 ± 0.044, R -0.672 ± 0.032, Q -0.528 ± 0.046, T -0.154 ± 0.034, M -0.236 ± 0.048, S -0.427 ± 0.033, N -0.764 ± 0.066, W -1.17 ± 0.077
R73: W -0.033 ± 0.036, E 0.088 ± 0.04, H 0.031 ± 0.053, A 0.111 ± 0.032, C -0.002 ± 0.043, Q 0.048 ± 0.044, T 0.043 ± 0.037, P -0.208 ± 0.039, S 0.044 ± 0.031, K 0.015 ± 0.042, L -0.1 ± 0.034, V -0.038 ± 0.036, M 0.001 ± 0.039, F -0.197 ± 0.055, D 0.092 ± 0.047, I -0.15 ± 0.058, N -0.004 ± 0.047
M67: D -0.075 ± 0.042, F -0.117 ± 0.045, P -0.455 ± 0.04, K -0.111 ± 0.039, S -0.078 ± 0.031, G -0.177 ± 0.028, R -0.096 ± 0.026, H -0.078 ± 0.047, C -0.187 ± 0.04, N -0.073 ± 0.051, W -0.124 ± 0.033, T -0.116 ± 0.035, A -0.03 ± 0.031, Y -0.088 ± 0.046, I -0.128 ± 0.051, L -0.053 ± 0.029, Q -0.067 ± 0.039, E -0.082 ± 0.035, V -0.126 ± 0.029
E70: S -0.106 ± 0.031, A -0.04 ± 0.033, T -0.056 ± 0.037, L -0.209 ± 0.03, Q -0.072 ± 0.038, W -0.239 ± 0.037, Y -0.196 ± 0.044, G -0.044 ± 0.029, N -0.127 ± 0.045, K 0.002 ± 0.036, M -0.152 ± 0.04, C -0.105 ± 0.039, P -0.308 ± 0.04, F -0.314 ± 0.049, D 0.046 ± 0.046, R -0.063 ± 0.026, I -0.432 ± 0.058, H -0.081 ± 0.05, V -0.339 ± 0.033
L69: P -0.346 ± 0.038, I -0.102 ± 0.048, G -0.018 ± 0.028, R 0.011 ± 0.026, M 0.068 ± 0.04, A -0.01 ± 0.03, K -0.028 ± 0.035, H -0.073 ± 0.047, D 0.016 ± 0.044, Y 0.008 ± 0.045, T -0.021 ± 0.035, V -0.082 ± 0.032, N 0.019 ± 0.046, E 0.011 ± 0.034, Q 0.003 ± 0.036, F -0.077 ± 0.051, S -0.015 ± 0.03
A64: S -0.228 ± 0.031, C -0.118 ± 0.042, Y -0.98 ± 0.11, H -0.967 ± 0.086, Q -0.695 ± 0.049, V -0.262 ± 0.032, M -0.469 ± 0.042, I -0.561 ± 0.054, N -0.772 ± 0.073, K -0.758 ± 0.053, D -0.725 ± 0.059, G -0.051 ± 0.027, T -0.296 ± 0.037, E -0.694 ± 0.041, L -0.839 ± 0.043, F -0.754 ± 0.064, R -0.853 ± 0.035, W -1.2 ± 0.07, P -0.784 ± 0.048
L71: F -0.078 ± 0.045, T -0.066 ± 0.035, I 0.025 ± 0.048, A -0.1 ± 0.032, W -0.189 ± 0.033, E -0.089 ± 0.036, D -0.389 ± 0.046, H -0.102 ± 0.051, P -0.481 ± 0.042, V -0.01 ± 0.03, S -0.218 ± 0.031, Q -0.082 ± 0.043, N -0.242 ± 0.049, K -0.001 ± 0.041, G -0.282 ± 0.027, C -0.048 ± 0.041, R -0.087 ± 0.027, Y -0.225 ± 0.055, M -0.031 ± 0.04
D74: E -0.058 ± 0.052, A -0.089 ± 0.039, W -0.327 ± 0.076, K -0.175 ± 0.07, R -0.089 ± 0.039, G 0.008 ± 0.034, L -0.277 ± 0.047, H -0.167 ± 0.051, Y -0.197 ± 0.051, C -0.128 ± 0.059, N -0.114 ± 0.048, T -0.076 ± 0.042, M -0.193 ± 0.067, Q -0.059 ± 0.061, P -0.016 ± 0.041, S -0.111 ± 0.037, F -0.311 ± 0.063
V68: N -0.385 ± 0.047, M -0.156 ± 0.034, L -0.154 ± 0.032, G -0.48 ± 0.031, I -0.023 ± 0.044, K -0.41 ± 0.039, E -0.427 ± 0.035, R -0.562 ± 0.031, S -0.425 ± 0.034, D -0.359 ± 0.041, T -0.143 ± 0.034, P -0.428 ± 0.047, F -0.658 ± 0.057, W -0.963 ± 0.061, Q -0.441 ± 0.044, Y -0.753 ± 0.067, A -0.221 ± 0.033, H -0.495 ± 0.055
E66: T -0.03 ± 0.034, W -0.167 ± 0.032, H -0.165 ± 0.051, V -0.072 ± 0.03, Q -0.07 ± 0.036, L -0.092 ± 0.032, I -0.224 ± 0.048, M -0.08 ± 0.036, K -0.007 ± 0.032, P -0.476 ± 0.049, A -0.091 ± 0.032, F -0.18 ± 0.046, R -0.081 ± 0.026, D -0.002 ± 0.037, C -0.106 ± 0.039, G -0.046 ± 0.027, N -0.048 ± 0.043
I72: D -0.408 ± 0.049, G -0.329 ± 0.028, N -0.398 ± 0.052, Q -0.24 ± 0.037, T -0.072 ± 0.034, F -0.136 ± 0.045, P -0.394 ± 0.036, C 0.045 ± 0.04, K -0.405 ± 0.043, S -0.301 ± 0.032, V 0.011 ± 0.03, L 0.01 ± 0.03, R -0.498 ± 0.029, Y -0.276 ± 0.044, H -0.524 ± 0.06, A -0.173 ± 0.032, W -0.353 ± 0.035, E -0.295 ± 0.035, M -0.009 ± 0.039
K65: I -0.049 ± 0.048, R -0.012 ± 0.027, C -0.097 ± 0.04, A -0.064 ± 0.032, W -0.439 ± 0.038, H -0.056 ± 0.047, L -0.211 ± 0.03, N -0.129 ± 0.046, V -0.037 ± 0.031, P -0.709 ± 0.043, Y -0.11 ± 0.054, T -0.057 ± 0.034, G -0.086 ± 0.028, D -0.577 ± 0.056, S -0.102 ± 0.03, M -0.07 ± 0.038, F -0.241 ± 0.049
Q63: P -0.408 ± 0.036, K 0 ± 0.036, S -0.061 ± 0.03, H -0.069 ± 0.049, V -0.038 ± 0.031, R -0.026 ± 0.026, F -0.116 ± 0.047, E 0.006 ± 0.035, M -0.026 ± 0.036, A -0.022 ± 0.03, Y -0.027 ± 0.05, T -0.039 ± 0.033, G -0.058 ± 0.027, N -0.107 ± 0.049, I -0.025 ± 0.05, D -0.116 ± 0.04, C 0.013 ± 0.045

Variants of: B2
Assay: as above
Conditions: Homo sapiens

Abundance fitness of substitutions, site by site:
K4: N -0.233 ± 0.13, G -0.486 ± 0.064, H -0.335 ± 0.099, E -0.2 ± 0.093, W -0.543 ± 0.083, C -0.169 ± 0.084, V -0.244 ± 0.065, T -0.059 ± 0.077, I -0.415 ± 0.11, Q -0.158 ± 0.089, P -0.912 ± 0.16, A -0.092 ± 0.082, S -0.149 ± 0.065, F -0.221 ± 0.078, M -0.169 ± 0.095, Y -0.17 ± 0.12, R -0.232 ± 0.061, D -0.678 ± 0.13, L -0.287 ± 0.065
K1: C -0.261 ± 0.4, D -0.182 ± 0.21, N 0.085 ± 0.15, W -0.336 ± 0.33, G -0.138 ± 0.14, L -0.187 ± 0.18, Y -0.158 ± 0.27, I 0.134 ± 0.2, V -0.225 ± 0.13, S -0.283 ± 0.14, Q -0.657 ± 0.25, R -0.326 ± 0.1, T -0.278 ± 0.17, H -0.003 ± 0.25, E -0.143 ± 0.2, A -0.218 ± 0.14
W3: I -0.059 ± 0.13, N -0.737 ± 0.28, S -0.885 ± 0.1, Q -0.721 ± 0.4, F 0.031 ± 0.12, R -1.01 ± 0.11, P -0.314 ± 0.11, H -0.842 ± 0.21, C -0.509 ± 0.12, Y -0.312 ± 0.12, D -1.31 ± 0.34, K -1.01 ± 0.3, T -0.615 ± 0.1, M -0.079 ± 0.11, E -0.866 ± 0.17, A -0.634 ± 0.09, V -0.053 ± 0.068, G -0.856 ± 0.081
G6: C -0.86 ± 0.093, E -0.845 ± 0.12, F -0.828 ± 0.12, K -0.416 ± 0.1, D -0.874 ± 0.089, I -0.941 ± 0.2, A -0.785 ± 0.086, H -0.502 ± 0.12
M2: I -0.201 ± 0.12, C -0.286 ± 0.14, V -0.164 ± 0.07, Y -0.15 ± 0.15, L -0.098 ± 0.075, H -0.13 ± 0.17, P -0.36 ± 0.1, R -0.254 ± 0.086, T -0.23 ± 0.091, A -0.192 ± 0.075, K -0.36 ± 0.11, S -0.009 ± 0.077, F -0.194 ± 0.15, W -0.657 ± 0.13, N -0.169 ± 0.17, G -0.052 ± 0.068, Q -0.134 ± 0.14, E -0.19 ± 0.083
P5: E -0.187 ± 0.11, I -0.141 ± 0.16, W -0.926 ± 0.1, F -0.529 ± 0.15, C -0.201 ± 0.073, Q -0.061 ± 0.09, Y -0.447 ± 0.14, A -0.017 ± 0.077, D -0.763 ± 0.15, T -0.024 ± 0.079, L -0.261 ± 0.081, R -0.123 ± 0.052, H -0.133 ± 0.097, M -0.401 ± 0.1, S -0.113 ± 0.065, N 0.03 ± 0.15, V -0.034 ± 0.07, G -0.61 ± 0.064
